Assay results as given in paper PMC2695464, “On the mechanism of autoinhibition of the RhoA-specific nucleotide exchange factor PDZRhoGEF” (BMC Structural Biology, 2009).

Target: human RhoA^F25N (residues 1–181) (human, UniProt P61586 1-181, F25N)
Assay: cell-based or functional assay

Sequence of human RhoA^F25N (residues 1–181) (P61586 1-181 F25N): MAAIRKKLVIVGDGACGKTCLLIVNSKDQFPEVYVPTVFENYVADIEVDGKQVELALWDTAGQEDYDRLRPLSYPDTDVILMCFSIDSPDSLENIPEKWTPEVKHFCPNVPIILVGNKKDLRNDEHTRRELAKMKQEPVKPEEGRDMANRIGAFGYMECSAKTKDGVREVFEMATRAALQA

B1: PRG^4R: PRG^672–1081 with D706R, E708R, E710R, D712R (domain or fragment, human, UniProt O15085 672-1081, looked up)
chain: TPKMGRRSIESPSLGFCTDTLLPHLLEDDLGQLSRLRPRPRAQNWQHTVGKDVVAGLTQREIDRQEVINELFVTEASHLRTLRVLDLIFYQRMKKENLMPREELARLFPNLPELIEIHNSWCEAMKKLREEGPIIKEISDLMLARFDGPAREELQQVAAQFCSYQSIALELIKTKQRKESRFQLFMQEAESHPQCRRLQLRDLIISEMQRLTKYPLLLESIIKHTEGGTSEHEKLCRARDQCREILKYVNEAVKQTENRHRLEGYQKRLDATALERASNPLAAEFKSLDLTTRKMIHEGPLTWRISKDKTLDLHVLLLEDLLVLLQKQDEKLLLKCHSKTAVGSSDSKQTFSPVLKLNAVLIRSVATDKRAFFIICTSKLGPPQIYELVALTSSDKNTWMELLEEAVRNA
catalytic activity in the nucleotide exchange assay on RhoA (mant-GTP fluorescence): 3.3 fold over the isolated DH-PH tandem
